Measured values from the supplement of paper PMC10724198.
± gives the standard deviation of the averaged measurements.

Key:
Saccharomyces cerevisiae [1] = test: protein stability index of tFT-peptide fusion (C-terminal peptide) (PSI (0-1 scale)); higher = more stable (slower turnover)
Procedure: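 MPS profiling in S. cerevisiae of the tFT-X12 degron library: putative degron peptides plus stable controls, 12 aa, fused to the C-terminus of a sfGFP-mCherry timer. Cells are FACS-sorted into 8 mCherry/sfGFP bins and deep-sequenced. PSI runs from 0 (unstable) to 1 (stable). Backgrounds are wild type, das1Δ and doa10Δ at 30 °C, and wild type, das1Δ, cdc34-1 and cdc53-1 at 37 °C; 2-3 technical replicates each.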

Saccharomyces cerevisiae [2] = test: as above; conditions: genetic background: wild type; temperature: 30 C
[3] = genetic background: cdc34-1, temperature: 37 C
[4] = genetic background: cdc53-1, temperature: 37 C
[5] = genetic background: das1 deletion, temperature: 30 C
[6] = genetic background: das1 deletion, temperature: 37 C
[7] = genetic background: doa10 deletion, temperature: 30 C
[8] = genetic background: wild type, temperature: 30 C
[9] = genetic background: wild type, temperature: 37 C
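Further: PSI is a weighted mean of sequencing reads over stability bins, variants kept only with over 10 reads, mCherry proximal and sfGFP distal, peptide attached via GGGS linker.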

| Sequence | protein stability index (Saccharomyces cerevisiae [1]; [3]) | protein stability index (Saccharomyces cerevisiae [1]; [4]) | protein stability index (Saccharomyces cerevisiae [1]; [5]) | protein stability index (Saccharomyces cerevisiae [1]; [6]) | protein stability index (Saccharomyces cerevisiae [1]; [7]) | protein stability index (Saccharomyces cerevisiae [1]; [8]) | protein stability index (Saccharomyces cerevisiae [1]; [9]) | protein stability index (Saccharomyces cerevisiae [2]) |
| --- | --- | --- | --- | --- | --- | --- | --- | --- |
| CVVFLWCGGCWV | 0.475 ± 0.013 | 0.584 ± 0.0059 | 0.346 ± 0.044 | 0.725 ± 0.085 | 0.344 ± 0.023 | 0.331 ± 0.03 | 0.734 ± 0.041 | 0.503 ± 0.076 |
| CVVLCLFCWCML | 0.358 ± 0.004 | 0.4266 ± 0.0042 | 0.314 ± 0.019 | 0.451 ± 0.007 | 0.32968 ± 0.00016 | 0.305 ± 0.021 | 0.425 ± 0.0082 | 0.347 ± 0.048 |
| CYCSIGCLIIFS | 0.2261 ± 0.0021 | 0.374 ± 0.023 | 0.238 ± 0.033 | 0.446 ± 0.0093 | 0.206 ± 0.0053 | 0.22 ± 0.023 | 0.4089 ± 0.003 | 0.378 ± 0.074 |
| DALHPCIIYLTC | 0.594 ± 0.049 | 0.565 ± 0.015 | 0.328 ± 0.035 | 0.609 ± 0.00096 | 0.217 ± 0.0055 | 0.254 ± 0.022 | 0.466 ± 0.013 | 0.341 ± 0.013 |
| DECQLCNRDWRG | 0.689 ± 0.069 | 0.739 ± 0.013 | 0.634 ± 0.015 | 0.726 ± 0.019 | 0.644 ± 0.032 | 0.657 ± 0.042 | 0.733 ± 0.018 | 0.7185 ± 0.0063 |
| DKKPMKKILLCI | 0.451 ± 0.0075 | 0.565 ± 0.068 | 0.494 ± 0.025 | 0.6477 ± 0.0033 | 0.0933 ± 0.02 | 0.0973 ± 0.0084 | 0.104 ± 0.0016 | 0.151 ± 0.029 |
| DRLRSGLSLLLA | 0.64 ± 0.014 | 0.6817 ± 0.0049 | 0.556 ± 0.018 | 0.669 ± 0.0078 | 0.365 ± 0.015 | 0.411 ± 0.02 | 0.583 ± 0.0065 | 0.4925 ± 0.0035 |
| DRQMRCVHIHYL | 0.647 ± 0.041 | 0.715 ± 0.028 | 0.646 ± 0.029 | 0.697 ± 0.011 | 0.275 ± 0.016 | 0.301 ± 0.015 | 0.532 ± 0.0088 | 0.412 ± 0.021 |
| DRYSFYGYVVVL | 0.587 ± 0.021 | 0.632 ± 0.05 | 0.512 ± 0.042 | 0.66198 ± 4.4e-05 | 0.1728 ± 0.0011 | 0.186 ± 0.02 | 0.291 ± 0.041 | 0.261 ± 0.0095 |
| DVCGVRYVLFVL | 0.57 ± 0.014 | 0.647 ± 0.018 | 0.49 ± 0.025 | 0.655 ± 0.024 | 0.416 ± 0.0086 | 0.428 ± 0.026 | 0.597 ± 0.026 | 0.502 ± 0.013 |
| DVRLVLCEMIKG | 0.587 ± 0.048 | 0.6123 ± 0.0027 | 0.414 ± 0.028 | 0.624 ± 0.0012 | 0.394 ± 0.021 | 0.426 ± 0.021 | 0.601 ± 0.0076 | 0.513 ± 0.036 |
| DVYIVLFIIKHG | 0.309 ± 0.052 | 0.395 ± 0.022 | 0.261 ± 0.052 | 0.4415 ± 0.0025 | 0.173 ± 0.0021 | 0.175 ± 0.034 | 0.3 ± 0.0092 | 0.241 ± 0.055 |
| EFFTLYDLVRFI | 0.742 ± 0.042 | 0.79 ± 0.05 | 0.669 ± 0.048 | 0.791 ± 0.05 | 0.192 ± 0.00011 | 0.232 ± 0.013 | 0.434 ± 0.04 | 0.38 ± 0.025 |
| ELTYVYRTALIA | 0.152 ± 0.004 | 0.157 ± 0.0057 | 0.204 ± 0.016 | 0.276 ± 0.0057 | 0.0966 ± 0.011 | 0.105 ± 0.014 | 0.0995 ± 0.017 | 0.183 ± 0.045 |
| EMSIISVLRVIS | 0.61 ± 0.013 | 0.641 ± 0.017 | 0.489 ± 0.02 | 0.651 ± 0.021 | 0.181 ± 0.011 | 0.218 ± 0.034 | 0.395 ± 0.015 | 0.369 ± 0.035 |
| ERFILVGMFGSW | 0.702 ± 0.036 | 0.717 ± 0.015 | 0.519 ± 0.017 | 0.708 ± 0.0095 | 0.532 ± 0.026 | 0.529 ± 0.027 | 0.701 ± 0.022 | 0.532 ± 0.048 |
| ERWSPWIVVFTN | 0.464 ± 0.015 | 0.505 ± 0.012 | 0.421 ± 0.034 | 0.612 ± 0.024 | 0.173 ± 0.019 | 0.185 ± 0.022 | 0.278 ± 0.029 | 0.278 ± 0.029 |
| ESVPLLIVLHLV | 0.304 ± 0.058 | 0.62 ± 0.085 | 0.415 ± 0.032 | 0.5979 ± 0.0039 | 0.0857 ± 0.02 | 0.0885 ± 0.0083 | 0.07176 ± 0.00058 | 0.0881 ± 0.034 |
| ETVHVISLIAIG | 0.428 ± 0.021 | 0.5059 ± 0.0027 | 0.33 ± 0.047 | 0.527 ± 0.017 | 0.279 ± 0.014 | 0.33 ± 0.021 | 0.49577 ± 7e-05 | 0.47 ± 0.037 |
| EWFFCLGLFRFH | 0.567 ± 0.022 | 0.6045 ± 0.0057 | 0.472 ± 0.044 | 0.6152 ± 0.0061 | 0.208 ± 0.022 | 0.235 ± 0.025 | 0.433 ± 0.00045 | 0.369 ± 0.045 |

| Sequence | protein stability index (Saccharomyces cerevisiae [1]; [3]) | protein stability index (Saccharomyces cerevisiae [1]; [4]) | protein stability index (Saccharomyces cerevisiae [1]; [5]) | protein stability index (Saccharomyces cerevisiae [1]; [6]) | protein stability index (Saccharomyces cerevisiae [1]; [7]) | protein stability index (Saccharomyces cerevisiae [1]; [8]) | protein stability index (Saccharomyces cerevisiae [1]; [9]) | protein stability index (Saccharomyces cerevisiae [2]) |
| --- | --- | --- | --- | --- | --- | --- | --- | --- |
| FASVFCVVTGYV | 0.551 ± 0.037 | 0.611 ± 0.027 | 0.423 ± 0.018 | 0.597 ± 0.0062 | 0.406 ± 0.01 | 0.429 ± 0.013 | 0.58585 ± 7.1e-07 | 0.48 ± 0.072 |
| FCALWLCFRLMV | 0.35 ± 0.024 | 0.403 ± 0.014 | 0.319 ± 0.028 | 0.476 ± 0.03 | 0.14 ± 0.014 | 0.149 ± 0.017 | 0.265 ± 0.028 | 0.174 ± 0.037 |
| FCCLVLDLEVSG | 0.4314 ± 0.0037 | 0.548 ± 0.019 | 0.36 ± 0.032 | 0.5627 ± 0.0037 | 0.331 ± 0.0069 | 0.372 ± 0.016 | 0.541 ± 0.0084 | 0.424 ± 0.0079 |
| FCLFMFVPLLPL | 0.531 ± 0.032 | 0.589 ± 0.013 | 0.455 ± 0.036 | 0.5868 ± 0.0043 | 0.4421 ± 0.0041 | 0.452 ± 0.027 | 0.5642 ± 0.003 | 0.453 ± 0.052 |
| FCMLCVVFLGSL | 0.43 ± 0.067 | 0.532 ± 0.0092 | 0.39 ± 0.029 | 0.6206 ± 0.0047 | 0.358 ± 0.01 | 0.397 ± 0.015 | 0.596 ± 0.026 | 0.505 ± 0.034 |
| FCVCLAVTCCGG | 0.279 ± 0.023 | 0.42 ± 0.013 | 0.277 ± 0.023 | 0.477 ± 0.0066 | 0.215 ± 0.0029 | 0.26 ± 0.024 | 0.42 ± 0.011 | 0.354 ± 0.01 |
| FDWLFFFVNFVV | 0.407 ± 0.063 | 0.511 ± 0.033 | 0.475 ± 0.018 | 0.546 ± 0.029 | 0.174 ± 0.0022 | 0.163 ± 0.019 | 0.24 ± 0.0068 | 0.2459 ± 0.00064 |
| FFAFLRFFIFYW | 0.319 ± 0.058 | 0.266 ± 0.087 | 0.349 ± 0.032 | 0.435 ± 0.0075 | 0.419 ± 0.0083 | 0.328 ± 0.0074 | 0.451 ± 0.026 | 0.448 ± 0.063 |
| FFALFLPLACFC | 0.4689 ± 0.0012 | 0.4432 ± 0.004 | 0.38 ± 0.031 | 0.4899 ± 0.0037 | 0.353 ± 0.023 | 0.386 ± 0.014 | 0.455 ± 0.0076 | 0.429 ± 0.013 |
| FFCCFVFVLGFC | 0.328 ± 0.011 | 0.443 ± 0.01 | 0.312 ± 0.028 | 0.4401 ± 0.0036 | 0.283 ± 0.014 | 0.291 ± 0.019 | 0.393 ± 0.0054 | 0.419 ± 0.021 |
| GPPVPLSPPLSP | 0.701 ± 0.042 | 0.695 ± 0.045 | 0.35 ± 0.024 | 0.5534 ± 0.0029 | 0.33 ± 0.0094 | 0.341 ± 0.014 | 0.532 ± 0.039 | – |
| KQSGLQIKRRKL | 0.711 ± 0.043 | 0.75156 ± 0.00069 | 0.617 ± 0.019 | 0.7734 ± 0.0051 | 0.639 ± 0.07 | 0.7 ± 0.056 | 0.763 ± 0.061 | – |
| LVCSLLVPSSFF | 0.679 ± 0.0081 | 0.7 ± 0.074 | 0.634 ± 0.016 | 0.722 ± 0.0063 | 0.667 ± 0.035 | 0.645 ± 0.011 | 0.7039 ± 0.0056 | – |
| PPPPPPPAPASP | – | – | 0.665 ± 0.13 | 0.68 ± 0.048 | 0.553 ± 0.17 | 0.635 ± 0.089 | 0.629 ± 0.032 | – |
| QRAVGLANFTIK | 0.672 ± 0.065 | 0.7512 ± 0.0062 | 0.647 ± 0.043 | 0.7328 ± 0.0028 | 0.646 ± 0.048 | 0.669 ± 0.032 | 0.709 ± 0.018 | – |
| RPPPYSPRLFHN | 0.469 ± 0.0049 | 0.706 ± 0.031 | 0.67 ± 0.031 | 0.75 ± 0.01 | 0.0941 ± 0.065 | 0.129 ± 0.023 | 0.179 ± 0.067 | – |
| RSRNSEYILVYN | 0.655 ± 0.018 | 0.672 ± 0.039 | 0.397 ± 0.045 | 0.6343 ± 0.0031 | 0.318 ± 0.012 | 0.391 ± 0.014 | 0.66 ± 0.025 | – |
| TGGGGRVSLGGG | 0.337 ± 0.053 | 0.427 ± 0.032 | 0.384 ± 0.021 | 0.44 ± 0.022 | 0.374 ± 0.013 | 0.372 ± 0.0084 | 0.416 ± 0.044 | – |
| VFYWGGVLCGWG | 0.337 ± 0.035 | 0.502 ± 0.074 | 0.309 ± 0.03 | 0.514 ± 0.014 | 0.297 ± 0.019 | 0.326 ± 0.036 | 0.439 ± 0.027 | – |
| WLISLLVQPVFL | 0.295 ± 0.0052 | 0.3167 ± 0.0022 | 0.276 ± 0.029 | 0.4053 ± 0.0021 | 0.233 ± 0.0031 | 0.273 ± 0.02 | 0.37 ± 0.0047 | – |
